Experimental data reported in US12702701B2, “Compositions and methods for treating granulomatosis with polyangiitis” (Canem Holdings, LLC, priority 2015, dated 2026).

T1: proteinase-3 (Homo sapiens, UniProt P24158)
T1 sequence (P24158 28-248): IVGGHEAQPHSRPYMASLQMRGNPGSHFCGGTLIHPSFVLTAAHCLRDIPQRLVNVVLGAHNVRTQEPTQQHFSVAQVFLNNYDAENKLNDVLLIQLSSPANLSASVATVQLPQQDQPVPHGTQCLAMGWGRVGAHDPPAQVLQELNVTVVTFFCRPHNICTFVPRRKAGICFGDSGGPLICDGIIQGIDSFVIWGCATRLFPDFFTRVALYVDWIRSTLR

B1: Negative K: negative control α1-antichymotrypsin (Athens Research & Technology), structurally similar to A1PI, lacks activity against the PR3 receptor (protein)
chain: HPNSPLDEENLTQENQDRGTHVDLGLASANVDFAFSLYKQLVLKAPDKNVIFSPLSISTALAFLSLGAHNTTLTEILKGLKFNLTETSEAEIHQSFQHLLRTLNQSSDELQLSMGNAMFVKEQLSLLDRFTEDAKRLYGSEAFATDFQDSAAAKKLINDYVKNGTRGKITDLIKDLDSQTMMVLVNYIFFKAKWEMPFDPQDTHQSRFYLSKKKWVMVPMMSLHHLTIPYFRDEELSCTVVELKYTGNASALFILPDQDKMEEVEAMLLPETLKRWRDSLEFREIGELYLPKFSISRDYNLNDILLQLGIEEAFTSKADLSGITGARNLAVSQVVHKAVLDVFEEGTEASAATAVKITLLSALVETRTIVRFNRPFLMIIVPTDTQNIFFMSKVTNPKQA

Tests used:
[1] = test system: HUVEC (human umbilical vein endothelial cells); test: HUVEC cytotoxicity assay: calcein release after attack by TNF-primed, α-PR3 mAb-activated neutrophils; format: cell-based; settings: for % Release / Mean (fluorescence): 0.25 mg/mL, α-PR3 mAbs +, 4 hours at 37° C.; for response in fluorescence release: all doses tested
Source text: A cell culture provides a model of the blood vessels by using HUVEC (human umbilical vein endothelial cells) cultured to 80-90% confluence as a representation of the blood vessel wall. The following is a model of GPA in cell culture using HUVEC and human blood neutrophils that are primed and activated by c-ANCA in the same manner as the disease. HUVEC are sensitized to inflammatory damage by pre-exposure to BCNU and ionomycin. In the disease state of Granulomatosis with Polyangiitis (GPAANegener's), activated neutrophils attack the blood vessel walls. This study evaluated two compounds, A1PI (α-1-antitrypsin; Sigma Aldrich Cat. No. A9024, lot SLBL9794V, 90% purity) and elafin (AnaSpec Cat. No. AS-61641, lot 1360190, 95% purity), and their ability to mitigate the induced damage to HUVEC as a model of the vascular endothelium compared to the negative control al-antichymotrypsin (Athens Research & Technology, Cat. No. 16-16-012400, lot AX2014-02, >95% purity). al-Antichymotrypsin was chosen as a negative control due to its structural similarity to A1PI and lack of activity against the PR3 receptor. α-1-Antichymotrypsin inhibits neutrophil cathepsin G and mast cell chymase.
Confluent HUVEC was labeled with calcein-AM as a fluorescent marker. Calcein-AM is a cell-permeant dye that can be used to determine cell viability in HUVEC (and most eukaryotic cells). In live cells the non-fluorescent calcein AM is converted to a green-fluorescent calcein upon uptake after acetoxymethyl ester hydrolysis by intracellular esterases. Calcein-AM dye requires very small quantities of cells while maintaining the same sensitivity as the traditional ^51Cr assay. Once taken up by the cell, free calcein is generally membrane impermeable and only permeates through gap junctions. Although there is some leakage over the incubation period, this is accounted for through the use of a control of HUVEC alone, labelled with Calcein-AM and used to determine the baseline fluorescence level accounting for normal cellular processes.
Peripheral blood neutrophils were primed to enhance expression of the PR-3 receptor (proteinase 3) with 50 U/mL TNF. A high proportion of membrane PR3 positive neutrophils is a risk factor for the development of vasculitis, and elevated membrane PR3 levels are associated with a higher relapse rate in patients with Wegener granulomatosis. Activated neutrophils were then added (5×10^5 neutrophils/well) to plated calcein labeled HUVEC to produce an inflammatory response. Four dose concentrations of A1PI (0.25, 0.5, 1.0 and 2.0 mg/mL) and one dose of elafin (0.25 mg/mL) were evaluated for prevention of the activation of neutrophils and lysis of the cells. One dose concentration of the negative control al antichymotrypsin (0.25 mg/mL) was evaluated.
Three a-PR-3 MoAbs [monoclonal antibodies (15 μg/mL of α-PR3 WGM2 and 5 μg/ml each of a-PR3 4A5 and α-PR 6A6, for a total of 25 μg/mL)] were added to activate the neutrophils to attack the HUVEC, causing lysis of the HUVEC. α-PR3 4A5 and α-PR3 6A6 clones were obtained from Eurodiagnostica and the α-PR3 WGM2 from Abcam. These 3 clones were selected to provide a model of the polyclonal response that would be seen in vivo and represent three binding sites on the PR-3 receptor (Van Der Geld, Characterization of monoclonal antibodies to PR3 as candidate tools for epitope mapping or human anti-PR3 autoantibodies, 1999). After addition of the activated neutrophils, test compounds and α-PR3 mAbs, cells were incubated for 4 hours at 37° C. Following incubation the supernatant was evaluated for fluorescence. When neutrophils attack the HUVEC and cell lysis occurs, the fluorescent calcein label is released from damaged membranes and measured in the supernatants.
A1PI provided a response that was dose dependent and directional in nature. The mean fluorescence was determined from […] aliquots of supernatant from each well, with 6 wells for each condition (18 replicates total). […]

[2] = biological target: T1, proteinase-3; settings: cited from earlier work
[3] = biological target: T1, proteinase-3; settings: Nobar et al, FEBS 272 (2005); cited from earlier work

| Molecule | % Release [1] | Mean (fluorescence) [1] | response in fluorescence release [1] | equilibrium dissociation constant (Ki) for proteinase-3/elafin association [2] | Ki values [3] | K of Proteinase-3/Trappin-2 associations [2] |
| --- | --- | --- | --- | --- | --- | --- |
| Elafin: mature product of Trappin-2, C-terminal 57 amino acids (61-117 of SEQ ID NO: 9); AnaSpec Cat. No. AS-61641 (AQEPVKGPVSTKPGSCPIILIRCAMLNPPNRCLKDTDCPGIKKCCEGSCGMACFVPQ; listed as Homo sapiens) | 6.2% | 5455.7 | showed a functional response | 20 nM | sub-nanomolar range | – |
| Trappin-2: precursor of elafin, 117 amino acids, SEQ ID NO: 9 | – | – | – | – | sub-nanomolar range | 12 nm |
| B1 | 21.9% | 4417.7 | failing to provide a meaningful change | – | – | – |
